Earlier results on one substance are cited in article PMC9583766.

The data set addresses plasma prekallikrein (PK) (Homo sapiens) (UniProt P03952).
Chain of UniProt P03952 (P03952 20-638): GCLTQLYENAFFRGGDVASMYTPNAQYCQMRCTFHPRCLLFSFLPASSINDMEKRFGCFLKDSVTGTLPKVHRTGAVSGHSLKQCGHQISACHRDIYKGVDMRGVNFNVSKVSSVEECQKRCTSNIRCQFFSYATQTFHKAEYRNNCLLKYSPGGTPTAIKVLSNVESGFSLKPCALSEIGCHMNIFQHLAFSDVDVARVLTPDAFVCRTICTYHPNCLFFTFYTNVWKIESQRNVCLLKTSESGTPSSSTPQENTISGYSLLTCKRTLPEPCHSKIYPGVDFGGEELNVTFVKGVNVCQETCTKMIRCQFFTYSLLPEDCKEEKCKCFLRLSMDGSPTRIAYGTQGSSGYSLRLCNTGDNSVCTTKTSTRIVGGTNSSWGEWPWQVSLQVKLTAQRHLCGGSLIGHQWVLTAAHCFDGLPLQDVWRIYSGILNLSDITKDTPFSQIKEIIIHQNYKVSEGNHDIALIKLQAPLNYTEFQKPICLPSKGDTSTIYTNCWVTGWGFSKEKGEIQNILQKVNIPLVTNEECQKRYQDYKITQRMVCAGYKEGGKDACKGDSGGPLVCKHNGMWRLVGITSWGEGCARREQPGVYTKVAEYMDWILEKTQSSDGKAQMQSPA

As usually defined, the Kd is the concentration at which binding is half-saturated. For the substance “high-molecular-weight kininogen (nHK) (from UniProt P01042)”, the Kd is 12 nM.
